Measured values from publication PMC5888019 (Nucleic Acids Research, 2018).

T1: Xrs2 (Flag-tagged, recombinant) (S. cerevisiae, UniProt P33301 1-854)
T1 sequence (looked up): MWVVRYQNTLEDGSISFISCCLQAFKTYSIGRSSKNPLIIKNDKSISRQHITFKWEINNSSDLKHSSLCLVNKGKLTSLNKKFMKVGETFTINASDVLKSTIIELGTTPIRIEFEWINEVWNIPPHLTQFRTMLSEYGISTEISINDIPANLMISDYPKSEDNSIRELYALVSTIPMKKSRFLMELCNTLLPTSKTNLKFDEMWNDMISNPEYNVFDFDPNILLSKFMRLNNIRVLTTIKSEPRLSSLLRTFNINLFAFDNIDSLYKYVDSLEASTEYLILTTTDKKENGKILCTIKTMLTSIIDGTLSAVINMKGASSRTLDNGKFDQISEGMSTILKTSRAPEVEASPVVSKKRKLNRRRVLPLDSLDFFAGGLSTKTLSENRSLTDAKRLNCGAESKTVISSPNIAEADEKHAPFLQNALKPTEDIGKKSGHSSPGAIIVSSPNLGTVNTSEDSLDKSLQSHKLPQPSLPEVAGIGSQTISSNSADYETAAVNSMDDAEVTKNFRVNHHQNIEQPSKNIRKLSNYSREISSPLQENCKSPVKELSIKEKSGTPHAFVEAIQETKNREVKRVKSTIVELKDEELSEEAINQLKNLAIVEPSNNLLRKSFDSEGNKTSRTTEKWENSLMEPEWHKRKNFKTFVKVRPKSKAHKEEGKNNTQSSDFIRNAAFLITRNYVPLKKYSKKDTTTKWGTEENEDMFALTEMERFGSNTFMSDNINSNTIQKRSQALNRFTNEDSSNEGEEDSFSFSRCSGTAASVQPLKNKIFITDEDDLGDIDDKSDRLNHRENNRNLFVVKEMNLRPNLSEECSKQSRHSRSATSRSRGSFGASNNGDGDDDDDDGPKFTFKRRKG

T2: Rad50 (S. cerevisiae, UniProt P12753 1-1312)
T2 sequence (looked up): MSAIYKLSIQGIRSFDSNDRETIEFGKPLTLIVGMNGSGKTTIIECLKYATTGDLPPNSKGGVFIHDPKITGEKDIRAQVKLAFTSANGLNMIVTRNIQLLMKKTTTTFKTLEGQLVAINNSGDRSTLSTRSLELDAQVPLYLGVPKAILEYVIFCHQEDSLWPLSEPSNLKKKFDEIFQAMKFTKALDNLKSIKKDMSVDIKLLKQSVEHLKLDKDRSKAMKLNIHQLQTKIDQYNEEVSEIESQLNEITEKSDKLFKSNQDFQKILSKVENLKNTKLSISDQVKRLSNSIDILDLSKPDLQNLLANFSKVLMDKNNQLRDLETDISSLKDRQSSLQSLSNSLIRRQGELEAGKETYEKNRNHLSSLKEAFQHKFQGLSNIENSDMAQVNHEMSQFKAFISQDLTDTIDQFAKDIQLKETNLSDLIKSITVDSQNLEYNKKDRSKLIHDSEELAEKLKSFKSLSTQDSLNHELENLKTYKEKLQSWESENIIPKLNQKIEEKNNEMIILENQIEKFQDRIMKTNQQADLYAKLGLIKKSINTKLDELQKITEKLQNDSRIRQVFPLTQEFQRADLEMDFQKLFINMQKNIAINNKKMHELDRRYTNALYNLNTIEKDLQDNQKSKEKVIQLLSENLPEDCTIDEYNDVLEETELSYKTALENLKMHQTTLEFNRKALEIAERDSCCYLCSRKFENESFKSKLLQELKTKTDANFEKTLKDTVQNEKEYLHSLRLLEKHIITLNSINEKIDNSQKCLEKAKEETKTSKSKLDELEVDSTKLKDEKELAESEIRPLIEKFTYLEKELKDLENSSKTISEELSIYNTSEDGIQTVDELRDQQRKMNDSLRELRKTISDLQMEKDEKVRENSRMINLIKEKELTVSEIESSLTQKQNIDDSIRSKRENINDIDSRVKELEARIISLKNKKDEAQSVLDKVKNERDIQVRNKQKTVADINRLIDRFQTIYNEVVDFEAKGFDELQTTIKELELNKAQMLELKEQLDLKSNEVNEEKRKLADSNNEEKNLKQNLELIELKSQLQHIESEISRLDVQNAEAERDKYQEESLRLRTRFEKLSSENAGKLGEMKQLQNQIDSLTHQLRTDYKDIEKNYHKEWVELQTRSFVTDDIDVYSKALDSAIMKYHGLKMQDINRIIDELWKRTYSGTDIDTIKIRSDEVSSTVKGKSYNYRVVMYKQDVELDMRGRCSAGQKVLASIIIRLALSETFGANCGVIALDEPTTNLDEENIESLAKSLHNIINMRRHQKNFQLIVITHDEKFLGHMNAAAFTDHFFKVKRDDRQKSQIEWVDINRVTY


Key:
[1] = molecular target: T1, Xrs2 (Flag-tagged, recombinant); assay: pull-down
Rad50 = molecular target: T2, Rad50; assay: pull-down

binding result [1]	binding result (Rad50)	Binder
binds		His-tagged Mre11 (wild type) (natural protein, S. cerevisiae, UniProt P32829 1-692, looked up) MDYPDPDTIRILITTDNHVGYNENDPITGDDSWKTFHEVMMLAKNNNVDMVVQSGDLFHVNKPSKKSLYQVLKTLRLCCMGDKPCELELLSDPSQVFHYDEFTNVNYEDPNFNISIPVFGISGNHDDASGDSLLCPMDILHATGLINHFGKVIESDKIKVVPLLFQKGSTKLALYGLAAVRDERLFRTFKDGGVTFEVPTMREGEWFNLMCVHQNHTGHTNTAFLPEQFLPDFLDMVIWGHEHECIPNLVHNPIKNFDVLQPGSSVATSLCEAEAQPKYVFILDIKYGEAPKMTPIPLETIRTFKMKSISLQDVPHLRPHDKDATSKYLIEQVEEMIRDANEETKQKLADDGEGDMVAELPKPLIRLRVDYSAPSNTQSPIDYQVENPRRFSNRFVGRVANGNNVVQFYKKRSPVTRSKKSGINGTSISDRDVEKLFSESGGELEVQTLVNDLLNKMQLSLLPEVGLNEAVKKFVDKDEKTALKEFISHEISNEVGILSTNEEFLRTDDAEEMKALIKQVKRANSVRPTPPKENDETNFAFNGNGLDSFRSSNREVRTGSPDITQSHVDNESRITHISQAESSKPTSKPKRVRTATKKKIPAFSDSTVISDAENELGDNNDAQDDVDIDENDIIMVSTDEEDASYGLLNGRKTKTKTRPAASTKTASRRGKGRASRTPKTDILGSLLAKKRK
binds	binds	His-tagged Mre11-R522H (natural protein, S. cerevisiae, UniProt P32829 1-692, looked up) MDYPDPDTIRILITTDNHVGYNENDPITGDDSWKTFHEVMMLAKNNNVDMVVQSGDLFHVNKPSKKSLYQVLKTLRLCCMGDKPCELELLSDPSQVFHYDEFTNVNYEDPNFNISIPVFGISGNHDDASGDSLLCPMDILHATGLINHFGKVIESDKIKVVPLLFQKGSTKLALYGLAAVRDERLFRTFKDGGVTFEVPTMREGEWFNLMCVHQNHTGHTNTAFLPEQFLPDFLDMVIWGHEHECIPNLVHNPIKNFDVLQPGSSVATSLCEAEAQPKYVFILDIKYGEAPKMTPIPLETIRTFKMKSISLQDVPHLRPHDKDATSKYLIEQVEEMIRDANEETKQKLADDGEGDMVAELPKPLIRLRVDYSAPSNTQSPIDYQVENPRRFSNRFVGRVANGNNVVQFYKKRSPVTRSKKSGINGTSISDRDVEKLFSESGGELEVQTLVNDLLNKMQLSLLPEVGLNEAVKKFVDKDEKTALKEFISHEISNEVGILSTNEEFLRTDDAEEMKALIKQVKHANSVRPTPPKENDETNFAFNGNGLDSFRSSNREVRTGSPDITQSHVDNESRITHISQAESSKPTSKPKRVRTATKKKIPAFSDSTVISDAENELGDNNDAQDDVDIDENDIIMVSTDEEDASYGLLNGRKTKTKTRPAASTKTASRRGKGRASRTPKTDILGSLLAKKRK
